Key:
[1] = target: Influenza Hemagglutinin A (influenza A virus); experiment: ELISA on Influenza Hemagglutinin A (1 ug/mL); 293 supernatant diluted 1:10000
[2] = target: Influenza Hemagglutinin B (influenza B virus); experiment: ELISA on Influenza Hemagglutinin B (1 ug/mL); 293 supernatant diluted 1:100
[3] = target: Influenza Hemagglutinin A (influenza A virus); experiment: ELISA on Influenza Hemagglutinin A (1 ug/mL); 293 supernatant diluted 1:100
[4] = target: Influenza Hemagglutinin B (influenza B virus); experiment: ELISA on Influenza Hemagglutinin B (1 ug/mL); 293 supernatant diluted 1:1000
[5] = target: Influenza Hemagglutinin B (influenza B virus); experiment: ELISA on Influenza Hemagglutinin B (1 ug/mL); 293 supernatant diluted 1:10000
[6] = target: Influenza Hemagglutinin A (influenza A virus); experiment: ELISA on Influenza Hemagglutinin A (1 ug/mL); 293 supernatant diluted 1:10
[7] = target: Influenza Hemagglutinin B (influenza B virus); experiment: ELISA on Influenza Hemagglutinin B (1 ug/mL); 293 supernatant diluted 1:10
[8] = target: Influenza Hemagglutinin A (influenza A virus); experiment: ELISA on Influenza Hemagglutinin A (1 ug/mL); 293 supernatant diluted 1:1000

B1: F1-04 (VHH)
VHH: QVQLVESGGGLVQVGGSLRLSCAASERPSSNYAMGWFRQAPGKEQEFVAAIYWSGGGTAYGDSVKGRFTISKDNAKNTVYLQMNDLKPEDTGMYYCTTDHYGSWSYEYGSWGQGTQVTVSS
In the case of B1, the ELISA signal [1] is reported as 0.058, the ELISA signal [2] is reported as 1.63 and the ELISA signal [3] is reported as 2. For the same binder, the ELISA signal [4] was 0.738, the ELISA signal [5] was 0.205 and the ELISA signal [6] was 1.76. For the same binder, the ELISA signal [7] was 1.47 and the ELISA signal [8] was 0.366.

B2: F2-02 (VHH)
VHH: QVQLVESGGGLVQAGGSLRLSCAASGRTFRSFAMGWFRQAPGKEREFVATISWWSNNTYYADSVKGRFTISRDIAKNTVYLQMNSLKPEDTAVYYCAADLGPWLTAGQYDYWGQGTQVTVSS
Binder B2 has an ELISA signal [1] of 0.405, an ELISA signal [2] of 0.863 and an ELISA signal [3] of 1.09. For the same binder, the ELISA signal [4] was 0.61, the ELISA signal [5] was 0.266 and the ELISA signal [6] was 1.21. For the same binder, the ELISA signal [7] was 0.826 and the ELISA signal [8] was 0.73.

B3: F2-20 (VHH)
VHH: QVQLVESGGGLVQAGGSLRLSCAASGRTFSRYAMGWFRQAPGKEREFVARISWSGDITYYADSVKGRFTISRDNAKNTVYLQMNSLKPEDTAVYYCAADAILRTRPPYESDYWGQGTQVTVSS
B3 was tested, and the ELISA signal [1] was 0.269, the ELISA signal [2] was 1.52 and the ELISA signal [3] was 0.629. It also gave an ELISA signal [4] of 1.2, an ELISA signal [5] of 0.805 and an ELISA signal [6] of 0.884. For the same binder, the ELISA signal [7] was 1.58 and the ELISA signal [8] was 0.442.

B4: F2-24 (VHH)
VHH: QVQLVESGGGLVQAGGSLRLSCASSGHTFNSYVMGWFRQAPGKEREFVAAIRPSGVSTYYADSVKGRFTISRDNAKNTVSLEMNSLKPEDTAVYYCAGDRDHSMMAVRRLSSYRQWGRGTQVTVSS
B4 showed an ELISA signal [1] of 0.15, an ELISA signal [2] of 1.85 and an ELISA signal [3] of 0.427. The ELISA signal [4] was 1.63, the ELISA signal [5] was 1.45 and the ELISA signal [6] was 0.444. For the same binder, the ELISA signal [7] was 1.69 and the ELISA signal [8] was 0.279.

Source: patent US12065483
